Source: patent publication US20130158238A1 (THERACLONE SCIENCES, published 2013)
Like-named read-outs stand apart in the source and are kept apart here.

Columns and labels:
M2e = assay: ELISA, peptide 2 µg/mL, mAb 5 µg/mL
[1] = target: M2e peptide … (23mer synthetic peptide of M2 derived from A/Fort Worth/1/50) (Influenza A virus A/Fort Worth/1/50 (H1N1)); assay: ELISA, peptide 2 µg/mL, mAb 5 µg/mL
[2] = target: M2e peptide … (23mer synthetic peptide of M2 derived from A/Fort Worth/1/50) (Influenza A virus A/Fort Worth/1/50 (H1N1)); assay: ELISA, peptide coated at 1 µg/ml
[3] = target: M2 protein of A/Puerto Rico/8/34 (H1N1), on cells (Influenza A virus A/Puerto Rico/8/34 (H1N1)) (UniProt P06821); assay: flow cytometry on MDCK cells infected with A/Puerto Rico/8/34
[4] = target: T1, A.X-31 Vaccine strain H3N2; assay: FACS, transfected HEK293, mAb 1 µg/ml [D00006 FIG. 3C-1]
T1 M2: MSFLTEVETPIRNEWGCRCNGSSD

A.Caracas.1.71.H3N2 = target: T2, A.Caracas.1.71.H3N2; assay: as above
T2 M2: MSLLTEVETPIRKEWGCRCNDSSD

A.Hong Kong.1144.99.H3N2 = target: T3, A.Hong Kong.1144.99.H3N2; assay: FACS, transfected HEK293 [D00006 FIG. 3C-1]
T3 M2: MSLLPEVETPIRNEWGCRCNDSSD

A.Hong Kong.1180.99 H3N2 = target: T4, A.Hong Kong.1180.99 H3N2; assay: FACS, transfected HEK293 [D00006 FIG. 3C-1]
T4 M2: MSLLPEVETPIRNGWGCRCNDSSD

M15 = assay: ELISA, peptide 2 µg/mL, mAb 5 µg/mL
NM17 = assay: ELISA, peptide 2 µg/mL, mAb 5 µg/mL
NM15 = assay: ELISA, peptide 2 µg/mL, mAb 5 µg/mL
M16 = assay: ELISA, peptide 2 µg/mL, mAb 5 µg/mL
[5] = target: M2e peptide … (23mer synthetic peptide of M2 derived from A/Fort Worth/1/50) (Influenza A virus A/Fort Worth/1/50 (H1N1)); assay: ELISA, peptide 2 µg/mL, mAb 5 µg/mL; remark: listed apart in the source
A.Hong Kong.1.68.H3N2 = target: T5, A.Hong Kong.1.68.H3N2; assay: FACS, transfected HEK293, mAb 1 µg/ml [D00006 FIG. 3C-1]
T5 M2: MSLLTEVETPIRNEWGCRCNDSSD

14C2 (chimeric mouse V-region/human IgG1 kappa 14C2 antibody)
binding activity (ELISA A450) (M2e): 3.98
binding activity (ELISA A450) [1]: 3.85
EC50 [2]: 0.01 µg/mL
EC50 (read off the curve) [3]: 0.3 µg/mL

B1: 8i10 (antibody, V domains shown)
VH: QVQLQESGPGLVKPSETLSLTCTVSGSSISNYYWSWIRQSPGKGLEWIGFIYYGGNTKYNPSLKSRVTISQDTSKSQVSLTMSSVTAAESAVYFCARASCSGGYCILDYWGQGTLVTVS
VL: DIQMTQSPSSLSASVGDRVTITCRASQNIYKYLNWYQQRPGKAPKGLISAASGLQSGVPSRFSGSGSGTDFTLTITSLQPEDFATYYCQQSYSPPLTFGGGTRVEIK
binding result [4]: binds
binding result (A.Caracas.1.71.H3N2): binds

B2: 23K12 (antibody, V domains shown)
VH: EVQLVESGGGLVQPGGSLRISCAASGFTVSSNYMSWVRQAPGKGLEWVSVIYSGGSTYYADSVKGRFSFSRDNSKNTVFLQMNSLRAEDTAVYYCARCLSRMRGYGLDVWGQGTTVTVS
VL: DIQMTQSPSSLSASVGDRVTITCRTSQSISSYLNWYQQKPGKAPKLLIYAASSLQSGVPSRFSGSGSGTDFTLTISGLQPEDFATYYCQQSYSMPAFGQGTKLEIK
binding result (A.Hong Kong.1144.99.H3N2): no binding (tested: 1 µg/ml)
binding result (A.Hong Kong.1180.99 H3N2): no binding (tested: 1 µg/ml)
binding activity (ELISA A450) (M15): 0.21
binding activity (ELISA A450) (NM17): 0.58
binding activity (ELISA A450) (NM15): 0.3
binding activity (ELISA A450) (M16): 0.21
binding activity (ELISA A450) [5]: 0.22
binding result [4]: binds
binding result (A.Hong Kong.1.68.H3N2): binds
binding result (A.Caracas.1.71.H3N2): binds
